Data: patent US20180258174A1 (INSITUT NATIONAL DE LA SANTE ET DE LA RECHERCHE MEDICALE …, published 2018)

Target: RLIQ108D/CD122 complex (RLIQ108D bound to immobilized CD122) (human, UniProt P14784 27-240, limits assumed)
Experiment: SPR, sequential binding on immobilized CD122
Description: The SPR experiments were performed with a BIAcore 3000 biosensor (BIAcore, Uppsala, Sweden). Recombinant proteins (hCD122, hCD132, Fc-IL-15Rα) were covalently linked to CM5 sensor chips, and the binding of increasing concentrations of ligands (IL-15, IL-15Q108D, RLI, RLIQ108D, RLIN65K) was monitored. Analysis of sensorgrams was performed using BIAlogue kinetics evaluation software.
In order to inhibit IL-2 and IL-15 dependent effector functions, we developed an original approach targeting the CD122/CD132 dimer, by combining an increased affinity for CD122 and an impaired recruitment of CD132. […] We have thus generated RLIQ108D, a fusion molecule between IL-15Q108D mutein covalently linked to the soluble IL-15Rα sushi domain. As a control, RLIN65K was produced in which CD122 recruitment was abrogated by introducing the N65K mutation in the IL-15 moiety. […] By contrast, RLIN65K was unable to bind CD122 (FIG. 11C). Furthermore, soluble CD132 binding to RLI/CD122 complex was completely abrogated when introducing in RLI the Q108D substitution (RLIQ108D) (FIG. 11E). […] As a control, the binding of the non-blocking CF-1 anti-CD122 mAb was unaffected by either RLIQ108D or RLIN65K (FIG. 12A).

Sequence of RLIQ108D/CD122 complex (RLIQ108D bound to immobilized CD122) (chain, as listed by the source limits assumed, chain 1 of 2): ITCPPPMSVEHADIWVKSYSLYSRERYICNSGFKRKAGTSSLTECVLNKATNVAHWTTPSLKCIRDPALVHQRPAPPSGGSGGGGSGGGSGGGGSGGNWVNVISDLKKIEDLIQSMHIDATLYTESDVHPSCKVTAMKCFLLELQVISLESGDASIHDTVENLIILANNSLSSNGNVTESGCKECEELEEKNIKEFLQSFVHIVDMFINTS
Sequence of RLIQ108D/CD122 complex (RLIQ108D bound to immobilized CD122) (P14784 27-240 limits assumed, chain 2 of 2): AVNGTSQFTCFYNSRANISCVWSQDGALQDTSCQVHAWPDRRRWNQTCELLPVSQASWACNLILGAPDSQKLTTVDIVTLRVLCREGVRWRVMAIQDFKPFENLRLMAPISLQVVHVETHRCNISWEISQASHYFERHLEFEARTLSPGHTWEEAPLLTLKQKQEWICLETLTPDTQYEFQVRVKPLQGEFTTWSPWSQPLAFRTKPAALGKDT

binding result: no binding
B1: hCD132 (recombinant, soluble CD132 chain) (receptor, human, UniProt P31785 23-262, looked up)
chain: LNTTILTPNGNEDTTADFFLTTMPTDSLSVSTLPLPEVQCFVFNVEYMNCTWNSSSEPQPTNLTLHYWYKNSDNDKVQKCSHYLFSEEITSGCQLQKKEIHLYQTFVVQLQDPREPRRQATQMLKLQNLVIPWAPENLTLHKLSESQLELNWNNRFLNHCLEHLVQYRTDWDHSWTEQSVDYRHKFSLPSVDGQKRYTFRVRSRFNPLCGSAQHWSEWSHPIHWGSNTSKENPFLFALEA
